Experimental findings from the supplement of paper PMC5998384 are described below.

In data set [1] the test system is HeLa Kyoto. In words: solubility in G1/S (NP-40 vs SDS abundance) (log2 ratio); higher = more soluble. Particulars: cell cycle stage: G1/S.
The test system of data set [2] is HeLa Kyoto. In words: melting temperature (median over replicates), in situ; higher = more thermally stable.
The test system of data set [3] is HeLa Kyoto. The data set can be described thus: solubility change mitosis vs G1/S (difference of NP-40 vs SDS log2 ratios) (log2 ratio difference); higher = more soluble in mitosis.
In data set [4] the test system is HeLa Kyoto. In words: thermal stability score vs G1/S (z-score of summed log2 fold changes over temperatures); higher = more thermally stable than in G1/S.
Where [5] appears, read: cell cycle stage: early G1 (4.5 h after nocodazole release).
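For melting temperature (median over replicates), in situ in this document: HeLa Kyoto cells synchronized by double thymidine or nocodazole block, proteins quantified by TMT10plex mass spectrometry, three independent biological replicates.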
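For solubility change mitosis vs G1/S (difference of NP-40 vs SDS log2 ratios) in this document: synchronized HeLa Kyoto cells (double thymidine block for G1/S, nocodazole release for mitosis), protein amounts in NP-40 versus SDS lysates quantified by mass spectrometry, three biological replicates.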
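For solubility in G1/S (NP-40 vs SDS abundance) in this document: HeLa Kyoto cells arrested at G1/S by double thymidine block, proteins quantified by TMT10plex mass spectrometry in mild NP-40 versus SDS extracts, three biological replicates.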
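For thermal stability score vs G1/S (z-score of summed log2 fold changes over temperatures) in this document: synchronized HeLa Kyoto cells, proteins quantified by TMT10plex mass spectrometry, three biological replicates, mitosis taken 0.5 h after nocodazole release, G1/S directly after double thymidine block.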

Turning to “MSDTRRRVKVYTLNEDRQWDDRGTGHVSSTYVEELKGMSLLVRAESDGSLLLESKINPNTAYQKQQDTLIVWSEAENYDLALSFQEKAGCDEIWEKICQVQGKDPSVEVTQDLIDESEEERFEEMPETSHLIDLPTCELNKLEEIADLVTSVLSSPIRREKLALALENEGYIKKLLQLFQACENLENTEGLHHLYEIIRGILFLNKATLFEVMFSDECIMDVVGCLEYDPALAQPKRHREFLTKTAKFKEVIPITDSELRQKIHQTYRVQYIQDIILPTPSVFEENFLSTLTSFIFFNKVEIVSMLQEDEKFLSEVFAQLTDEATDDDKRRELVNFFKEFCAFSQTLQPQNRDAFFKTLAKLGILPALEIVMGMDDLQVRSAATDIFSYLVEFSPSMVREFVMQEAQQSDDDILLINVVIEQMICDTDPELGGAVQLMGLLRTLIDPENMLATTNKTEKSEFLNFFYNHCMHVLTAPLLTNTSEDKCEKDFFLKHYRYSWSFICTPSHSHSHSTPSSSISQDNIVGSNKNNTICPDNYQTAQLLALILELLTFCVEHHTYHIKNYIMNKDLLRRVLVLMNSKHTFLALCALRFMRRIIGLKDEFYNRYITKGNLFEPVINALLDNGTRYNLLNSAVIELFEFIRVEDIKSLTAHIVENFYKALESIEYVQTFKGLKTKYEQEKDRQNQKLNSVPSILRSNRFRRDAKALEEDEEMWFNEDEEEEGKAVVAPVEKPKPEDDFPDNYEKFMETKKAKESEDKENLPKRTSPGGFKFTFSHSASAANGTNSKSVVAQIPPATSNGSSSKTTNLPTSVTATKGSLVGLVDYPDDEEEDEEEESSPRKRPRLGS [PPP4R3B]”, the “solubility in G1/S (log2)” value with HeLa Kyoto [1] was determined as 0.0425. Also, the melting temperature is 49.6 °C in the data set on HeLa Kyoto [2] (cell cycle stage: G1/S) and 49.5 °C with HeLa Kyoto [2] (cell cycle stage: mitosis). For the same sequence, the “solubility change mitosis (log2)” value in the data set on HeLa Kyoto [3] was -0.181. The thermal stability score with HeLa Kyoto [4] (setting [5]) turned out to be 1.17; with HeLa Kyoto [4] (cell cycle stage: mitosis), 1.76.
For “MSDTSESGAGLTRFQAEASEKDSSSMMQTLLTVTQNVEVPETPKASKALEVSEDVKVSKASGVSKATEVSKTPEAREAPATQASSTTQLTDTQVLAAENKSLAADTKKQNADPQAVTMPATETKKVSHVADTKVNTKAQETEAAPSQAPADEPEPESAAAQSQENQDTRPKVKAKKARKVKHLDGEEDGSSDQSQASGTTGGRRVSKALMASMARRASRGPIAFWARRASRTRLAAWARRALLSLRSPKARRGKARRRAAKLQSSQEPEAPPPRDVALLQGRANDLVKYLLAKDQTKIPIKRSDMLKDIIKEYTDVYPEIIERAGYSLEKVFGIQLKEIDKNDHLYILLSTLEPTDAGILGTTKDSPKLGLLMVLLSIIFMNGNRSSEAVIWEVLRKLGLRPGIHHSLFGDVKKLITDEFVKQKYLDYARVPNSNPPEYEFFWGLRSYYETSKMKVLKFACKVQKKDPKEWAAQYREAMEADLKAAAEAAAEAKARAEIRARMGIGLGSENAAGPCNWDEADIGPWAKARIQAGAEAKAKAQESGSASTGASTSTNNSASASASTSGGFSAGASLTATLTFGLFAGLGGAGASTSGSSGACGFSYK [MAGED2]”, the “solubility in G1/S (log2)” value with HeLa Kyoto [1] is 0.259. The melting temperature in the data set on HeLa Kyoto [2] (cell cycle stage: G1/S) stood at 46.9 °C; in the data set with HeLa Kyoto [2] (cell cycle stage: mitosis), 48.4 °C. The “solubility change mitosis (log2)” value in the data set with HeLa Kyoto [3] is -0.157. Further, the thermal stability score in the data set with HeLa Kyoto [4] (setting [5]) was 2.46; in the data set with HeLa Kyoto [4] (cell cycle stage: mitosis), 4.54.
In the case of “MSDYSTGGPPPGPPPPAGGGGGAGGAGGGPPPGPPGAGDRGGGGPGGGGPGGGSAGGPSQPPGGGGPGIRKDAFADAVQRARQIAAKIGGDAATTVNNSTPDFGFGGQKRQLEDGDQPESKKLASQGDSISSQLGPIHPPPRTSMTEEYRVPDGMVGLIIGRGGEQINKIQQDSGCKVQISPDSGGLPERSVSLTGAPESVQKAKMMLDDIVSRGRGGPPGQFHDNANGGQNGTVQEIMIPAGKAGLVIGKGGETIKQLQERAGVKMILIQDGSQNTNVDKPLRIIGDPYKVQQACEMVMDILRERDQGGFGDRNEYGSRIGGGIDVPVPRHSVGVVIGRSGEMIKKIQNDAGVRIQFKQDDGTGPEKIAHIMGPPDRCEHAARIINDLLQSLRSGPPGPPGGPGMPPGGRGRGRGQGNWGPPGGEMTFSIPTHKCGLVIGRGGENVKAINQQTGAFVEISRQLPPNGDPNFKLFIIRGSPQQIDHAKQLIEEKIEGPLCPVGPGPGGPGPAGPMGPFNPGPFNQGPPGAPPHAGGPPPHQYPPQGWGNTYPQWQPPAPHDPSKAAAAAADPNAAWAAYYSHYYQQPPGPVPGPAPAPAAPPAQGEPPQPPPTGQSDYTKAWEEYYKKIGQQPQQPGAPPQQDYTKAWEEYYKKQAQVATGGGPGAPPGSQPDYSAAWAEYYRQQAAYYGQTPGPGGPQPPPTQQGQQQAQ [KHSRP]”, the “solubility in G1/S (log2)” value in the data set with HeLa Kyoto [1] stood at 0.523. The values for the melting temperature in the data set on HeLa Kyoto [2] (cell cycle stage: G1/S) and in the data set with HeLa Kyoto [2] (cell cycle stage: mitosis) were 55.4 °C and 55.7 °C, respectively. Further, the “solubility change mitosis (log2)” value with HeLa Kyoto [3] amounted to 0.0471. The thermal stability score in the data set on HeLa Kyoto [4] (setting [5]) was determined as 1.92; in the data set on HeLa Kyoto [4] (cell cycle stage: mitosis), 1.64.
Turning to “MSEADGLRQRRPLRPQVVTDDDGQAPEAKDGSSFSGRVFRVTFLMLAVSLTVPLLGAMMLLESPIDPQPLSFKEPPLLLGVLHPNTKLRQAERLFENQLVGPESIAHIGDVMFTGTADGRVVKLENGEIETIARFGSGPCKTRDDEPVCGRPLGIRAGPNGTLFVADAYKGLFEVNPWKREVKLLLSSETPIEGKNMSFVNDLTVTQDGRKIYFTDSSSKWQRRDYLLLVMEGTDDGRLLEYDTVTREVKVLLDQLRFPNGVQLSPAEDFVLVAETTMARIRRVYVSGLMKGGADLFVENMPGFPDNIRPSSSGGYWVGMSTIRPNPGFSMLDFLSERPWIKRMIFKLFSQETVMKFVPRYSLVLELSDSGAFRRSLHDPDGLVATYISEVHEHDGHLYLGSFRSPFLCRLSLQAV [APMAP]”, in the data set on HeLa Kyoto [1], the “solubility in G1/S (log2)” value was determined as 0.164. Moreover, the melting temperature turned out to be 56.2 °C in the data set with HeLa Kyoto [2] (cell cycle stage: G1/S) and 57.2 °C in the data set on HeLa Kyoto [2] (cell cycle stage: mitosis). Moreover, in the data set on HeLa Kyoto [3], the “solubility change mitosis (log2)” value is -0.116. The thermal stability score in the data set on HeLa Kyoto [4] (setting [5]) turned out to be 0.325; with HeLa Kyoto [4] (cell cycle stage: mitosis), 0.806.
In the case of “MSEDLAKQLASYKAQLQQVEAALSGNGENEDLLKLKKDLQEVIELTKDLLSTQPSETLASSDSFASTQPTHSWKVGDKCMAVWSEDGQCYEAEIEEIDEENGTAAITFAGYGNAEVTPLLNLKPVEEGRKAKEDSGNKPMSKKEMIAQQREYKKKKALKKAQRIKELEQEREDQKVKWQQFNNRAYSKNKKGQVKRSIFASPESVTGKVGVGTCGIADKPMTQYQDTSKYNVRHLMPQ [SMNDC1]”, in the data set on HeLa Kyoto [1], the “solubility in G1/S (log2)” value came out at 0.271. The values for the melting temperature with HeLa Kyoto [2] (cell cycle stage: G1/S) and with HeLa Kyoto [2] (cell cycle stage: mitosis) were 57.7 °C and 55.9 °C, respectively. The “solubility change mitosis (log2)” value in the data set with HeLa Kyoto [3] came out at 0.405. Besides, the figures for the thermal stability score in the data set on HeLa Kyoto [4] (setting [5]) and with HeLa Kyoto [4] (cell cycle stage: mitosis) were -2.66 and -6.93, respectively.
